The values below come from patent US20080051562.

The test system of data set [1] is PEG-TMB (TMB conjugated at the C-terminal azido-methionine analog to methyl-PEG-triarylphosphine conjugate 2 by Staudinger ligation).
The subject of data set [2] is TMA (truncated human thrombomodulin EGF-like domains 4-6, Met-388-Leu, C-terminal GlyGlyMet linker, expressed as an N-terminal Dsba enzyme fusion with leader sequence).
The test system of data set [3] is TMB (truncated human thrombomodulin derivative, EGF-like domains 4-6, Met-388-Leu, C-terminal GlyGlyMet linker with azido-methionine analog).
Data set [4] addresses recombinant human Thrombomodulin (soluble truncated form that lacks the putative transmembrane and the cytoplasmic domains, approximate weight 68 kD; American Diagnostica Inc.) (UniProt P07204).

recombinant human Thrombomodulin (soluble truncated form that lacks the putative transmembrane and the cytoplasmic domains, approximate weight 68 kD; American Diagnostica Inc.), sequence (P07204 whole entry, looked up, the tested form may be a part): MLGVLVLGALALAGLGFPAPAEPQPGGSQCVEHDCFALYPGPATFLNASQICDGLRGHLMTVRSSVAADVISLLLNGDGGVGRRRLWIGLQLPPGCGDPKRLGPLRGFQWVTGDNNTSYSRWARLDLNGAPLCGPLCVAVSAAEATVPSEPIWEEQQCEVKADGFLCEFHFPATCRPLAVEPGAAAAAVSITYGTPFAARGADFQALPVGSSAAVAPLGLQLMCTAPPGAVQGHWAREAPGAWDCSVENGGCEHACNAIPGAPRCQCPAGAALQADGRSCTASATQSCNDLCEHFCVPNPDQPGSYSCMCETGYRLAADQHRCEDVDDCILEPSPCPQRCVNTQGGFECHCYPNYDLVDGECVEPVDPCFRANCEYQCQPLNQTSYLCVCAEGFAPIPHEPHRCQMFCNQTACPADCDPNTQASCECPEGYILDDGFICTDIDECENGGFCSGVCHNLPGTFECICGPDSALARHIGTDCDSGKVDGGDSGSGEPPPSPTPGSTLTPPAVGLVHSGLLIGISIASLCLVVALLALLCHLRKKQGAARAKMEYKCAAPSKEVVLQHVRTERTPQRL

For “human alpha thrombin (Haematologic Technologies Inc.)”, the KM (µM) for protein C activation by the TM-thrombin complex in data set [1] amounted to 1 µM; in data set [2], 0.9 µM; in data set [3], 1 µM; in data set [4] it was 0.7 µM. Besides, the kcat (min^-1) for protein C activation by the TM-thrombin complex in data set [1] turned out to be 0.2 min⁻¹; in data set [2] it was 0.22 min⁻¹; in data set [3], 0.16 min⁻¹; in data set [4], 0.14 min⁻¹. Moreover, the kcat/KM (min^-1 · µM^-1) for protein C activation by the TM-thrombin complex (min^-1 · µM^-1) in data set [1] amounted to 0.2; in data set [2] it was 0.26; in data set [3], 0.16; in data set [4], 0.21.
